The nature of this series: label from the status in PepcDB records.
Take “MTTIPSTAEAKLEMLTTINRAIAGSRPEALPPYPVPAPLSRAEILHQFEDRILDYGAAYTHVSAAELPGAIAKALGNARRVIVPAGIPAPWLTVGMDVLRDEPPLSHAELDRADAVLTGCAVAISETGTIILDHRADQGRRALSLIPDFHICVVREDQIVQTVREGVEAVAASVREGRPLTWLSGGSATSDIELVRVEGVHGPRRLQVIVVG”: the protein production entry was “not failed”.

With “MTTKDISRPVCILGLGLIGGSLLRDLHAANHSVFGYNRSRSGAKSAVDEGFDVSADLEATLQRAAAEDALIVLAVPMTAIDSLLDAVHTHAPNNGFTDVVSVKTAVYDAVKARNMQHRYVGSHPMAGTANSGWSASMDGLFKRAVWVVTFDQLFDGTDINSTWISIWKDVVQMALAVGAEVVPSRVGPHDAAAARVSHLTHILAETLAIVGDNGGALSLSLAAGSYRDSTRVAGTDPGLVRAMCESNAGPLVKALDEALAILHEAREGLTAEQPNIEQLADNGYRSRIRYEARSGQRRAKESVSPTITSSRPVLRLHPGTPNWEKQLIHAETLGARIEVF”, the protein production result is listed as “not failed”.

Regarding “MTTKFVVGYDGSAASRRALDFAMERAKAGGASIIVAHVLEWSPYSFLTPTEIEERHKRRAEEMARAETAILAPLKAELAGSGVEIETAIRYGQVADTLCDIATKSGAAQIFIARQGESGLAARVFGSVAGTLAQYAPVPCTIVP”, the protein production entry is “failed”.

Regarding “MTTKNMNTPPGSTQENEIDLLRLVGELWDHRKFIISVTALFTLIAVAYSLLSTPIYQADTLVQVEQKQGNAILSGLSDMIPNSSPESAPEIQLLQSRMILGKTIAELNLRDIVEQKYFPIVGRGWARLTKEKPGELAISWMHIPQLNGQDQQLTLTVGENGHYTLEGEEFTVNGMVGQRLEKDGVALTIADIKAKPGTQFVLSQRTELEAINALQETFTVSERSKESGMLELTMTGDDPQLITRILNSIANNYLQQNIARQAAQDSQSLEFLQRQLPEVRSELDQAEEKLNVYRQQRDSVDLNLEAKAVLEQIVNVDNQLNELTFREAEISQLYKKDHPTYRALLEKRQTLEQERKRLNKRVSAMPSTQQEVLRLSRDVEAGRAVYLQLLNRQQELSISKSSAIGNVRIIDPAVTQPQPVKPKKALNVVLGFILGLFISVGAVLARAMLRRGVEAPEQLEEHGISVYATIPMSEWLDKRTRLRKKNLFSNQQRHRTKNIPFLAVDNPADSAVEAVRALRTSLHFAMMETENNILMITGATPDSGKTFVSSTLAAVIAQSDQKVLFIDADLRRGYSHNLFTVSNEHGLSEYLAGKDELNKVIQHFGKGGFDVITRGQVPPNPSELLMRDRMRQLLEWANDHYDLVIVDTPPMLAVSDAAVVGRSVGTSLLVARFGLNTAKEVSLSMQRLEQAGVNIKGAILNGVIKRASTAYSYGYNYYGYSYSEKE”, the protein production result is “failed”.

As to “MTTKRVNTATNKIMTLNTFLDTCFLLFISILFYLSIPIYPNKVVVVPQGSLKKVFFSLKEQGVDMNALDLLFLRLMGMPKKGYIDMGDGALRKGDFLVRLIKAKAAQKSATLIPGESRYFFTQILSETYQLETSDLNQAYESIAPRLNGEVIEDGVIWPDTYHLPLGEDAFKIMQTLIGQSMKKHEALSKQWLGYYHKEEWFEKIILASIVQKEAANVEEMPLIASVIFNRLKKGMPLQMDGALNYQEFSHAKVTKERIKTDNTPYNTYKFKGLPKNPVGSVSLEAIRAVIFPKKTDFLYFVKMPDKKHAFSATYKEHLKNINLSNNHF”, the protein production result is listed as “failed”.

Consider “MTTLQLFESVNAFVWGPPLLALLVGTGIYLTIRLGLLQVVRLPLALRYVFGRDDEHHEEGDVSSFAALCTALAATIGTGNIVGVATAVAAGGPGALFWMWVAAFFGMATKYAEGLLAVKYRVTDANGQMSGGPMYYLERGLGSRMLARAFALCGILVAFFGIGTFAQVNAIKDAASLSLGIPPLATAVVLTTTVALVTLGGLRSIARVAEKVVPFMAVFYIIASCAVLVMHLDRIPDAVMVILHSAFNPQAALGGAAGMTVLTAMRAGVARGVFSNESGLGSAPIAAAAARTKSCVRQGLISMTGTFFDTIVICTMTGLVLVVTGVWNDPQLAGAAMTNAAFAAGLESSLGQYAATLGLILFAFTTILGWNYYGERCTEYLFGVRGILPYRLVFIGLVAAGAFVHLELIWVLADIVNGLMAIPNLIGLLGLSGVIIAETRAFFEADAPSVDAPCGSDADNASGACPRA”, for which the protein production result is “failed”.

Turning to “MTTLVLVSHPHLADSTSQQFLKASINSDEVLWEHIESQATIDIEKEQAQLRQADRIILQFPLYWYAAPAGLKQWEDTVLTRTFVYGDHRYPLAGKELGIVVTTGMPAKAFQRGGAEQITLDAALAPLAAVANRAKMKWLPTFAIHQFAYLDEPAKLQLVVDYQRYLTQTQPDNLQNKQAWFAQHLPAMIERLPLEQQQAGQLILTAFEQQQTDLEALTDTLGLIKEQEDD”, the protein production result is reported as “failed”.

The values are drawn from a protein production outcome set (Wang et al. 2014).
